# Values of other authors, collected in publication PMC10651016.
# Test system: Lys110
# Test: kinetics
# Conditions: steady-state turnover with L-proline; FAD-bound enzyme
substance,measurement,value
L-proline dehydrogenase (ProDH) (Mycobacterium tuberculosis),pKa,6.8
